Assay results: patent publication US20260285993 (published 2026)

T1: cynomolgus PRLR ECD (cynomolgus monkey)
T1 chain: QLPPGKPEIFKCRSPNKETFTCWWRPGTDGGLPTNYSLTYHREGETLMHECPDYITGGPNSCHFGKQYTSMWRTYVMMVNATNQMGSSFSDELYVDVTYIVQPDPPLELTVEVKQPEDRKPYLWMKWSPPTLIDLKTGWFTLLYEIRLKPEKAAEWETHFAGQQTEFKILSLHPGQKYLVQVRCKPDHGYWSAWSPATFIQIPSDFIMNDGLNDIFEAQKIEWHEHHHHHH

B1: H-PR-B06 (antibody, V domains shown)
VH: DVKLVESGGGLVKPGGSLKLACAASGFTFSSYTMSWVRQTPEKRLEWVATISSGGSYTYYPDSVKGRFTISRDNAKNTLYLQLSSLKSEDTAMYYCTRDRYYSTTPDWYFDVWGAGTTVTVSS
VL: DIVLTQSPATLSVTPGDSVSLSCRATQIIFNNLHWYQQKSHESPRLLITYTSQSISGIPSRFSGSGSGTDFTLTINSVETEDFGMYFCQQSNTWPRTFGGGTKLEIK
B2: HP-PR02H02 (antibody, V domains shown)
VH: EVMLVESGGGLVKPGGSLKLACAASGFTFSSYTMSWVRQTPEKRLEWVATISSGGSYTYYPDSVKGRFTISRDNAKNTLYLQLSSLKSEDTAMYYCTRDRYYSTTPDWYFDVWGAGTTLTVSS
VL: DIVITQSPATLSVTPGDSVSLSCRATQIIFNNLHWYQQKSHESPRLLITYTSQSISGIPSRFSGSGSGTDFTLTINSVETEDFGMYFCQQSNTWPRTFGGGTKLEIK
B3: HP-PR01B01 (antibody, V domains shown)
VH: EVHLVESGPDLVKPSQSLSLTCTVTGYSITSGYNWHWIRQFPGNKLEWMGYIHYSGSTKYDPSLKSRISFTRDTSRNQFFLQLNSVTTEDRATYYCARSEAGGYSWFAYWGQGTLVTVSA
VL: DIVMTQSPAIMSASPGEKVTMACSASSSVNYMHWYQQKSGTSPKRWIYDTSKLASGVPARFSGSGSGTSYSLTISSMEAEDAATYYCQQWSSNPLTFGAGTKLELK

Target: T1, cynomolgus PRLR ECD
Assay: ELISA

Q: Does B1 bind?
A: no binding

Q: Does B2 bind?
A: no binding

Q: Does B3 bind?
A: no binding
